Laboratory results published in patent US20090186337A1 (INSTITUT NATIONAL DE LA RECHERCHE AGRONOMIQUE INRA, published 2009).

Columns and labels:
[1] = target: T1, N protein (nucleocapsid protein) of human RSV Long strain (human RSV Long strain, UniProt P03418 1-391); assay: coexpression in E. coli, copurification of N with the P fragment
T1 construct: also called native N protein

[2] = target: N protein deleted of 27 residues at the C-terminal end (human RSV Long strain, UniProt P03418 1-364); assay: interaction of truncated N with P (method not detailed)
[3] = target: T2, N protein of the measles virus (measles virus strain Edmonston B, UniProt P0DXN6 1-525); assay: coexpression in E. coli and copurification of N with the P fragment
T2 sequence: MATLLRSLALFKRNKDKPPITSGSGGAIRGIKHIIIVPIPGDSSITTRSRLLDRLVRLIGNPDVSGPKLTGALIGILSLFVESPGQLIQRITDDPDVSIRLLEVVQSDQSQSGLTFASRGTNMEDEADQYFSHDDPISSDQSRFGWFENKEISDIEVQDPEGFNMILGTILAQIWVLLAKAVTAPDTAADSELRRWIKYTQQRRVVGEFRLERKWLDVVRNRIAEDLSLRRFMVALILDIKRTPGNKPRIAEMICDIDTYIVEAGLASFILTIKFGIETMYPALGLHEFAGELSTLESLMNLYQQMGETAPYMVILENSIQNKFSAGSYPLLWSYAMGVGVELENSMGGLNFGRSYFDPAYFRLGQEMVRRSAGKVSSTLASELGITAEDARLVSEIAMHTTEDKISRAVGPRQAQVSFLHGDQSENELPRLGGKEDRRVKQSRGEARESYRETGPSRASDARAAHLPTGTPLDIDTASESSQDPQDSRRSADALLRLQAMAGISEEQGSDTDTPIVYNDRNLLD

B1: protein P (fragment 161-241) fused to GST (other)
chain: SARDGIRDAMVGLREEMIEKIRTEALMTNDRLEAMARLRNEESEKMAKDTSDEVSLNPTSEKLNNLLEGNDSDNDLSLEDF
notes: not shown: GST carrier at the N end (from pGEX-4T-3) and the vector-encoded junction with the thrombin site
- binding result [1]: binds

B2: P protein (phosphoprotein) of human RSV Long strain (other)
chain: SARDGIRDAMVGLREEMIEKIRTEALMTNDRLEAMARLRNEESEKMAKDTSDEVSLNPTSEKLNNLLEGNDSDNDLSLEDF
- binding result [2]: no binding

B3: P protein of the measles virus deleted of its N-terminal part as far as residue 456 (inclusive) (other)
chain: GPASRSVIRSIIKSSRLEEDRKRYLMTLLDDIKGANDLAKFHQMLMKIIMK
notes: also called PΔ457N
- binding result [3]: no binding
